Data on 1 molecule can be found in article PMC8519570 (2021).

This assay concerns the target DENV2 sE WT (soluble envelope protein E of dengue virus 2, wild type) (dengue virus 2 (strain 16681)). Put plainly: BLI. In general terms: In BLI a coated tip is dipped into the sample, and binding shifts an interference pattern.

B1: EDE1 C10 quaternary epitope antibody (antibody, V domains shown)
VH: EVQLVESGAEVKKPGASVKVSCKASGYTFTSYAMHWVRQAPGQRLEWMGWINAGNGNTKYSQKFQDRVTITRDTSASTAYMELSSLRSEDTAIYYCARDKVDDYGDYWFPTLWYFDYWGQGTLVTVSS
VL: QSALTQPASVSGSPGQSITISCTGTSSDVGGFNYVSWFQQHPGKAPKLMLYDVTSRPSGVSSRFSGSKSGNTASLTISGLQAEDEADYYCSSHTSRGTWVFGGGTKLTVL
The term Kd denotes the concentration at which binding is half-saturated. A higher Kd goes with weaker binding. B1: the Kd was > 1000 nM.
